Test system: G5 1297-1412 (RBS1)
Assay: EMSA

FMDV IRES domain 5 was tested, and the Kd was 20 µM.

Source: publication PMC4027194
